Test results published in patent US20010010923A1, “MODIFIED CARBOXYPEPTIDASE” (priority 1997, published 2001).
Marks after values point to notes of the source that are not given here.

Experiments:
[1] = Transpeptidation of FA-Ala-Xaa-OH with H-Gly-NH2, Table 2; format: biochemical; settings: for Fraction of aminolysis (fa), P1' Ala: FA-Ala-Ala-OH 0.2 mM; for Fraction of aminolysis (fa), P1' Ala / Fraction of aminolysis (fa), P1' Leu / Fraction of aminolysis (fa), P1' Met / Fraction of aminolysis (fa), P1' Phe / Fraction of aminolysis (fa), P1' Val: 1.9 M H-Gly-NH2, pH 7.5, room temperature; for Fraction of aminolysis (fa), P1' Leu: FA-Ala-Leu-OH 0.2 mM; for Fraction of aminolysis (fa), P1' Met: FA-Ala-Met-OH 0.2 mM; for Fraction of aminolysis (fa), P1' Phe: FA-Ala-Phe-OH 0.2 mM; for Fraction of aminolysis (fa), P1' Val: FA-Ala-Val-OH 0.2 mM; for fraction of aminolysis compared to wild type, in words: larger, hydrophobic leaving group such as leucine
Method in brief: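 Enzyme reacted with 0.2 mM peptide substrate and nucleophile in 50 mM HEPES, 5 mM EDTA, pH 7.5; aliquots quenched in 1% TFA. Products quantified by reverse-phase HPLC at 254 nm at two conversion points (20-50% and 50-90% substrate consumed). Fraction of aminolysis = aminolysis product over all products, ignoring unconsumed substrate.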

[2] = Transpeptidation of FA-Ala-OBzl with H-Leu-NH2, Table 3; format: biochemical; settings: FA-Ala-OBzl 0.2 mM, pH 7.5; for fa: H-Leu-NH2; for KN(app): nucleophile H-Leu-NH2 concentration at which fa is half of maximum
Method in brief: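 Site-directed mutant enzymes were reacted with H-Leu-NH2 in 50 mM HEPES, 5 mM EDTA, pH 7.5, with acyl-donor substrate at 0.2 mM final. Products were quantified by C-18 RP-HPLC at 254 nm at about 35% and 80% substrate consumption. fa is aminolysis product over all products; famax is fa at nucleophile saturation, and KN(app) is the nucleophile concentration giving famax/2.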

Row | Molecule | Fraction of aminolysis (fa), P1' Ala [1] | Fraction of aminolysis (fa), P1' Leu [1] | Fraction of aminolysis (fa), P1' Met [1] | Fraction of aminolysis (fa), P1' Phe [1] | Fraction of aminolysis (fa), P1' Val [1] | fraction of aminolysis compared to wild type, in words [1] | fa [2] | KN(app) [2]
1 | T60A + M398L: carboxypeptidase Y double substitution mutant T60A + M398L (protein, UniProt P00729 112-532, looked up, variant T60A M398L) Carboxypeptidase Y: KIKDPKILGIDPNVTQYTGYLDVEDEDKHFFFWTFESRNDPAKDPVILWLNGGPGCSSLAGLFFELGPSSIGPDLKPIGNPYSWNSNATVIFLDQPVNVGFSYSGSSGVSNTVAAGKDVYNFLELFFDQFPEYVNKGQDFHIAGESYAGHYIPVFASEILSHKDRNFNLTSVLIGNGLTDPLTQYNYYEPMACGEGGEPSVLPSEECSAMEDSLERCLGLIESCYDSQSVWSCVPATIYCNNAQLAPYQRTGRNVYDIRKDCEGGNLCYPTLQDIDDYLNQDYVKEAVGAEVDHYESCNFDINRNFLFAGDWMKPYHTAVTDLLNQDLPILVYAGDKDFICNWLGNKAWTDVLPWKYDEEFASQKVRNWTASITDEVAGEVKSYKHFTYLRVFNGGHLVPFDVPENALSMVNEWIHGGFSL | 0.92 | 0.94 | 0.72 | 0.52 | 0.91 | further improved the fraction of aminolysis | 0.99^a | 1.0^b mM
2 | T60C: carboxypeptidase Y S1' mutant, substitution T60C (protein, UniProt P00729 112-532, looked up, variant T60C) Carboxypeptidase Y: KIKDPKILGIDPNVTQYTGYLDVEDEDKHFFFWTFESRNDPAKDPVILWLNGGPGCSSLCGLFFELGPSSIGPDLKPIGNPYSWNSNATVIFLDQPVNVGFSYSGSSGVSNTVAAGKDVYNFLELFFDQFPEYVNKGQDFHIAGESYAGHYIPVFASEILSHKDRNFNLTSVLIGNGLTDPLTQYNYYEPMACGEGGEPSVLPSEECSAMEDSLERCLGLIESCYDSQSVWSCVPATIYCNNAQLAPYQRTGRNVYDIRKDCEGGNLCYPTLQDIDDYLNQDYVKEAVGAEVDHYESCNFDINRNFLFAGDWMKPYHTAVTDLLNQDLPILVYAGDKDFICNWLGNKAWTDVLPWKYDEEFASQKVRNWTASITDEVAGEVKSYKHFTYLRVFNGGHMVPFDVPENALSMVNEWIHGGFSL | 0.92 | 0.19 | 0.15 | 0.08 | 0.27 |  | 0.98^a | 
3 | T60Y + M398L: carboxypeptidase Y double substitution mutant T60Y + M398L (protein, UniProt P00729 112-532, looked up, variant T60Y M398L) Carboxypeptidase Y: KIKDPKILGIDPNVTQYTGYLDVEDEDKHFFFWTFESRNDPAKDPVILWLNGGPGCSSLYGLFFELGPSSIGPDLKPIGNPYSWNSNATVIFLDQPVNVGFSYSGSSGVSNTVAAGKDVYNFLELFFDQFPEYVNKGQDFHIAGESYAGHYIPVFASEILSHKDRNFNLTSVLIGNGLTDPLTQYNYYEPMACGEGGEPSVLPSEECSAMEDSLERCLGLIESCYDSQSVWSCVPATIYCNNAQLAPYQRTGRNVYDIRKDCEGGNLCYPTLQDIDDYLNQDYVKEAVGAEVDHYESCNFDINRNFLFAGDWMKPYHTAVTDLLNQDLPILVYAGDKDFICNWLGNKAWTDVLPWKYDEEFASQKVRNWTASITDEVAGEVKSYKHFTYLRVFNGGHLVPFDVPENALSMVNEWIHGGFSL | 0.92 | 0.95 | 0.93 | 0.87 | 0.89 | further improved the fraction of aminolysis | 1.0^a | 1.7^c mM
4 | T60D + M398L: carboxypeptidase Y double substitution mutant T60D + M398L (protein, UniProt P00729 112-532, looked up, variant T60D M398L) Carboxypeptidase Y: KIKDPKILGIDPNVTQYTGYLDVEDEDKHFFFWTFESRNDPAKDPVILWLNGGPGCSSLDGLFFELGPSSIGPDLKPIGNPYSWNSNATVIFLDQPVNVGFSYSGSSGVSNTVAAGKDVYNFLELFFDQFPEYVNKGQDFHIAGESYAGHYIPVFASEILSHKDRNFNLTSVLIGNGLTDPLTQYNYYEPMACGEGGEPSVLPSEECSAMEDSLERCLGLIESCYDSQSVWSCVPATIYCNNAQLAPYQRTGRNVYDIRKDCEGGNLCYPTLQDIDDYLNQDYVKEAVGAEVDHYESCNFDINRNFLFAGDWMKPYHTAVTDLLNQDLPILVYAGDKDFICNWLGNKAWTDVLPWKYDEEFASQKVRNWTASITDEVAGEVKSYKHFTYLRVFNGGHLVPFDVPENALSMVNEWIHGGFSL | 0.89 | 0.89 | 0.66 | 0.62 | 0.90 | further improved the fraction of aminolysis | 1.0^a | 2.0^b mM
5 | T60D + M398Y: carboxypeptidase Y double substitution mutant T60D + M398Y (protein, UniProt P00729 112-532, looked up, variant T60D M398Y) Carboxypeptidase Y: KIKDPKILGIDPNVTQYTGYLDVEDEDKHFFFWTFESRNDPAKDPVILWLNGGPGCSSLDGLFFELGPSSIGPDLKPIGNPYSWNSNATVIFLDQPVNVGFSYSGSSGVSNTVAAGKDVYNFLELFFDQFPEYVNKGQDFHIAGESYAGHYIPVFASEILSHKDRNFNLTSVLIGNGLTDPLTQYNYYEPMACGEGGEPSVLPSEECSAMEDSLERCLGLIESCYDSQSVWSCVPATIYCNNAQLAPYQRTGRNVYDIRKDCEGGNLCYPTLQDIDDYLNQDYVKEAVGAEVDHYESCNFDINRNFLFAGDWMKPYHTAVTDLLNQDLPILVYAGDKDFICNWLGNKAWTDVLPWKYDEEFASQKVRNWTASITDEVAGEVKSYKHFTYLRVFNGGHYVPFDVPENALSMVNEWIHGGFSL | 0.70 | 0.75 | 0.72 | 0.56 | 0.71 | further improved the fraction of aminolysis | 0.89^a | 9.2^c mM
6 | T60F: carboxypeptidase Y S1' mutant, substitution T60F (protein, UniProt P00729 112-532, looked up, variant T60F) Carboxypeptidase Y: KIKDPKILGIDPNVTQYTGYLDVEDEDKHFFFWTFESRNDPAKDPVILWLNGGPGCSSLFGLFFELGPSSIGPDLKPIGNPYSWNSNATVIFLDQPVNVGFSYSGSSGVSNTVAAGKDVYNFLELFFDQFPEYVNKGQDFHIAGESYAGHYIPVFASEILSHKDRNFNLTSVLIGNGLTDPLTQYNYYEPMACGEGGEPSVLPSEECSAMEDSLERCLGLIESCYDSQSVWSCVPATIYCNNAQLAPYQRTGRNVYDIRKDCEGGNLCYPTLQDIDDYLNQDYVKEAVGAEVDHYESCNFDINRNFLFAGDWMKPYHTAVTDLLNQDLPILVYAGDKDFICNWLGNKAWTDVLPWKYDEEFASQKVRNWTASITDEVAGEVKSYKHFTYLRVFNGGHMVPFDVPENALSMVNEWIHGGFSL | 0.85 | 0.17 | 0.21 | 0.12 | 0.15 |  | 0.98^a | 
7 | T60A + M398Y: carboxypeptidase Y double substitution mutant T60A + M398Y (protein, UniProt P00729 112-532, looked up, variant T60A M398Y) Carboxypeptidase Y: KIKDPKILGIDPNVTQYTGYLDVEDEDKHFFFWTFESRNDPAKDPVILWLNGGPGCSSLAGLFFELGPSSIGPDLKPIGNPYSWNSNATVIFLDQPVNVGFSYSGSSGVSNTVAAGKDVYNFLELFFDQFPEYVNKGQDFHIAGESYAGHYIPVFASEILSHKDRNFNLTSVLIGNGLTDPLTQYNYYEPMACGEGGEPSVLPSEECSAMEDSLERCLGLIESCYDSQSVWSCVPATIYCNNAQLAPYQRTGRNVYDIRKDCEGGNLCYPTLQDIDDYLNQDYVKEAVGAEVDHYESCNFDINRNFLFAGDWMKPYHTAVTDLLNQDLPILVYAGDKDFICNWLGNKAWTDVLPWKYDEEFASQKVRNWTASITDEVAGEVKSYKHFTYLRVFNGGHYVPFDVPENALSMVNEWIHGGFSL | 0.80 | 0.83 | 0.83 | 0.81 | 0.81 | further improved the fraction of aminolysis | 0.97^a | 9.1^b mM
8 | T60Y + M398Y: carboxypeptidase Y double substitution mutant T60Y + M398Y (protein, UniProt P00729 112-532, looked up, variant T60Y M398Y) Carboxypeptidase Y: KIKDPKILGIDPNVTQYTGYLDVEDEDKHFFFWTFESRNDPAKDPVILWLNGGPGCSSLYGLFFELGPSSIGPDLKPIGNPYSWNSNATVIFLDQPVNVGFSYSGSSGVSNTVAAGKDVYNFLELFFDQFPEYVNKGQDFHIAGESYAGHYIPVFASEILSHKDRNFNLTSVLIGNGLTDPLTQYNYYEPMACGEGGEPSVLPSEECSAMEDSLERCLGLIESCYDSQSVWSCVPATIYCNNAQLAPYQRTGRNVYDIRKDCEGGNLCYPTLQDIDDYLNQDYVKEAVGAEVDHYESCNFDINRNFLFAGDWMKPYHTAVTDLLNQDLPILVYAGDKDFICNWLGNKAWTDVLPWKYDEEFASQKVRNWTASITDEVAGEVKSYKHFTYLRVFNGGHYVPFDVPENALSMVNEWIHGGFSL | 0.74 | 0.77 | 0.76 | 0.75 | 0.74 | further improved the fraction of aminolysis | 0.99^a | 5.4^b mM
